Test results taken from IntAct's records for PubMed 23230146.

B1: Autophagy-related protein 18 (Saccharomyces cerevisiae), P43601 (parent)
chain: MSDSSPTINFINFNQTGTCISLGTSKGFKIFNCEPFGKFYSEDSGGYAIVEMLFSTSLLALVGIGDQPALSPRRLRIINTKKHSIICEVTFPTSILSVKMNKSRLVVLLQEQIYIYDINTMRLLHTIETNPNPRGLMAMSPSVANSYLVYPSPPKVINSEIKAHATTNNITLSVGGNTETSFKRDQQDAGHSDISDLDQYSSFTKRDDADPTSSNGGNSSIIKNGDVIVFNLETLQPTMVIEAHKGEIAAMAISFDGTLMATASDKGTIIRVFDIETGDKIYQFRRGTYATRIYSISFSEDSQYLAVTGSSKTVHIFKLGHSMSNNKLDSDDSNMEEAAADDSSLDTTSIDALSDEENPTRLAREPYVDASRKTMGRMIRYSSQKLSRRAARTLGQIFPIKVTSLLESSRHFASLKLPVETNSHVMTISSIGSPIDIDTSEYPELFETGNSASTESYHEPVMKMVPIRVVSSDGYLYNFVMDPERGGDCLILSQYSILMD

Variants of: B1
Conditions: with atg2_yeast ATG2, P53855
Chain of atg2_yeast ATG2, P53855 (P53855 whole entry): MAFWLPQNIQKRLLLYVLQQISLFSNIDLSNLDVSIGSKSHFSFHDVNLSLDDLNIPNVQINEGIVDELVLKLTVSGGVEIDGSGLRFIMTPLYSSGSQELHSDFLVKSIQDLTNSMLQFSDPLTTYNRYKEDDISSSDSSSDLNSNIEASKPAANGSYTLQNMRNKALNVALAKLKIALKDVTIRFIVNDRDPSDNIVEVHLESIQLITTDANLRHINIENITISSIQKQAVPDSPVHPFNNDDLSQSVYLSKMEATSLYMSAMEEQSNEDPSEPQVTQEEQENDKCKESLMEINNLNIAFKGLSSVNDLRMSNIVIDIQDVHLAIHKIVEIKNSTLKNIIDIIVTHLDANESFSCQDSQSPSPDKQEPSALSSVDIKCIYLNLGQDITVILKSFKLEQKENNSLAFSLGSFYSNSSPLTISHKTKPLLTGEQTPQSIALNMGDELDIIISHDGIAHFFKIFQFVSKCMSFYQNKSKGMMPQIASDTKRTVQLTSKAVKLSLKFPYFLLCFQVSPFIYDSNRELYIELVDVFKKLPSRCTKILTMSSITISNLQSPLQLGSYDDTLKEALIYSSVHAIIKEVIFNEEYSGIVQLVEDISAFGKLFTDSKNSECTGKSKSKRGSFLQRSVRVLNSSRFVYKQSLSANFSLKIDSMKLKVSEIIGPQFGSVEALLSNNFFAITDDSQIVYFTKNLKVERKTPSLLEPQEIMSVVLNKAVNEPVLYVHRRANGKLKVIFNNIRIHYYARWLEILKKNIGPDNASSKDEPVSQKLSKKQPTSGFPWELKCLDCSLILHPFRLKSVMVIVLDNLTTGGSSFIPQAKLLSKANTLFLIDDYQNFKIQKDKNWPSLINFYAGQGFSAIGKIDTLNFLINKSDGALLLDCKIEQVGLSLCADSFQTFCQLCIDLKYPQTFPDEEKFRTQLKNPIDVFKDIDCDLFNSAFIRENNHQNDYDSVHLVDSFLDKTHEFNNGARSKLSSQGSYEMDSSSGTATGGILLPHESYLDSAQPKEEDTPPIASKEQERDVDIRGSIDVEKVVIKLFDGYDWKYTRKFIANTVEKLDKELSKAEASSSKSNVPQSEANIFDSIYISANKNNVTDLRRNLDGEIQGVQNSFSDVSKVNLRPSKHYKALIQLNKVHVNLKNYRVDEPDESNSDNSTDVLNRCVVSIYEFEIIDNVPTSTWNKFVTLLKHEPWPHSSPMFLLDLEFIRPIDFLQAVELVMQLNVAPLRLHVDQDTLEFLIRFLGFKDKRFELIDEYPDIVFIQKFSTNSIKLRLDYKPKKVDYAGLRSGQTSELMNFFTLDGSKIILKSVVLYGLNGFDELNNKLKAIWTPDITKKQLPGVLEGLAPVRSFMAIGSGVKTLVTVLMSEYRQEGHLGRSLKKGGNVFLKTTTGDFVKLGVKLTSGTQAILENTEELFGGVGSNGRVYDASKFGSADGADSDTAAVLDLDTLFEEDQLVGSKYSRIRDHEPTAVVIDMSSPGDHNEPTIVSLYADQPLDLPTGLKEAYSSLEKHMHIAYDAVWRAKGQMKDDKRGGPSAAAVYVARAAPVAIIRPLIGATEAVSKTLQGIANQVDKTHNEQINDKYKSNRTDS

Row | effect of a mutation on the interaction | Variant
1 | decreasing interaction strength | T90A;F91A;P92A;T93A;S94A

Variants of: B1
Conditions: with atg2_yeast ATG2, P53855
Remark: another data set of the same source

Row | effect of a mutation on the interaction | Variant
2 | disrupting interaction strength | R285A;R286A

Variants of: B1
Conditions: with atg2_yeast ATG2, P53855
Remark: another data set of the same source

Row | effect of a mutation on the interaction | Variant
3 | disrupting interaction strength | E42A;D43A;S44A;Y47A;T90A;F91A;P92A;T93A;S94A
